From the supplement of paper PMC10724198
± gives the standard deviation of the averaged measurements.

System: Saccharomyces cerevisiae
Assay: protein stability index of tFT-peptide fusion (C-terminal peptide) (PSI (0-1 scale)); higher = more stable (slower turnover)
Details: genetic background: wild type; temperature: 30 C
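Note: PSI is a weighted mean of sequencing reads over stability bins, variants kept only with over 10 reads, mCherry proximal and sfGFP distal, peptide attached via GGGS linker.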

Row | Sequence | protein stability index
1 | PLGQGRRRPPDA | 0.732 ± 0.1
2 | PLHDGRFANDSF | 0.674 ± 0.043
3 | PLHPPCLPPSRL | 0.814 ± 0.043
4 | PLHPPSLPPPPT | 0.732 ± 0.032
5 | PLHPSFPPPPAP | 0.5147 ± 0.0044
6 | PLHRARAPHSYP | 0.7167 ± 0.006
7 | PLKPPTPDPPHR | 0.666 ± 0.027
8 | PLLLSPPPLYTF | 0.632 ± 0.028
9 | PLLPATFLPATP | 0.74 ± 0.021
10 | PLLPPLPATSHT | 0.786 ± 0.14
11 | PLLPPLPPRPPP | 0.633 ± 0.03
12 | PLLPPPPPPPPT | 0.718 ± 0.025
13 | PLLPPSSVPTPS | 0.784 ± 0.1
14 | PLLSPPSPLPPF | 0.724 ± 0.022
15 | PLLSPPSPPPPT | 0.713 ± 0.017
16 | PLPAAPPILFSL | 0.731 ± 0.038
17 | PLPAPPPPTLPD | 0.715 ± 0.065
18 | PLPARSPPPTSV | 0.652 ± 0.026
19 | PLPFPLLPPPPH | 0.705 ± 0.013
20 | PLPFPPPLPPPT | 0.681 ± 0.043
21 | PLPFPSSPPPPP | 0.6723 ± 0.0018
22 | PLPFPSTPPPPD | 0.691 ± 0.031
23 | PLPFRSSPLLVL | 0.614 ± 0.05

Row | Sequence | protein stability index
24 | PLPGLLHCPTSP | 0.717 ± 0.12
25 | PLPLAPHPDYSL | 0.687 ± 0.052
26 | PLPLFGPRLSPP | 0.875 ± 0.065
27 | PLPLHPSALPSL | 0.676 ± 0.05
28 | PLPLPLLPPPLP | 0.764 ± 0.11
29 | PLPLPPPSLSPL | 0.73279 ± 8.7e-05
30 | PLPLPVSPRPPP | 0.6807 ± 0.0063
31 | PLPLPYCQASPV | 0.658 ± 0.008
32 | PLPLSPPLLPAP | 0.6 ± 0.0082
33 | PLPPCCLPPSAF | 0.6857 ± 0.0061
34 | PLPPCPPTPCPS | 0.648 ± 0.013
35 | PLPPHVPPSLPP | 0.679 ± 0.0083
36 | PLPPPDPPAPSL | 0.716 ± 0.0085
37 | PLPPPGPLPSPP | 0.736 ± 0.043
38 | PLPPPLPPTLPL | 0.72 ± 0.018
39 | PLPPPPALLFPP | 0.733 ± 0.054
40 | PLPPPPPALPLP | 0.683 ± 0.037
41 | PLPPPPPDILTP | 0.743 ± 0.013
42 | PLPPPPPTSLPP | 0.705 ± 0.043
43 | PLPPRPHPLLSP | 0.6526 ± 0.0026
44 | PLPPSPPPPPSP | 0.677 ± 0.019
45 | PLPQNIPFPLPL | 0.735 ± 0.019
46 | PLPRLSYRPPTL | 0.663 ± 0.028

Row | Sequence | protein stability index
47 | PLPRPLPPRVPF | 0.712 ± 0.013
48 | PLPRPPSPLPAL | 0.689 ± 0.039
49 | PLPSPPVPPPPP | 0.6796 ± 0.0043
50 | PLPTGTQPTRHR | 0.669 ± 0.0079
51 | PLPTHISPPLPS | 0.6893 ± 0.006
52 | PLRLPPPRSPPL | 0.689 ± 0.032
53 | PLRPRGAAPPHP | 0.6842 ± 0.0026
54 | PLSAPNHVPGRT | 0.702 ± 0.045
55 | PLSFPTFVPLPI | 0.663 ± 0.043
56 | PLSFSPSLRYPP | 0.659 ± 0.023
57 | PLSGFSSPSFFP | 0.693 ± 0.025
58 | PLSPLPPPPPPP | 0.649 ± 0.04
59 | PLSPPPPSPPFA | 0.743 ± 0.013
60 | PLSPPPPSPPRP | 0.645 ± 0.025
61 | PLSPRHVSPPLL | 0.778 ± 0.045
62 | PLSRPFSPSLPL | 0.66 ± 0.028
63 | PLSRYPSPSLPL | 0.693 ± 0.0076
64 | PLVFSTSLCVSE | 0.666 ± 0.0093
65 | PLVLPPSPASPF | 0.694 ± 0.042
66 | PLVLSHRLPLPP | 0.703 ± 0.067
67 | PLVPLAFWSPLV | 0.686 ± 0.035
68 | PLVPPESPRSQV | 0.6564 ± 0.0034
69 | PLVSLLPHPRAA | 0.495 ± 0.094

Row | Sequence | protein stability index
70 | PLWALVRDVRVG | 0.652 ± 0.033
71 | PLYLSFSFCPSF | 0.611 ± 0.013
72 | PMHVLTKLCDGV | 0.689 ± 0.083
73 | PMLSLFRYNVVR | 0.697 ± 0.021
74 | PMPGRSEREYQV | 0.711 ± 0.087
75 | PNLARPSTPTTS | 0.72 ± 0.023
76 | PNLKLSPKWAKP | 0.67 ± 0.063
77 | PNLRPPSPPSLL | 0.714 ± 0.049
78 | PNVPVPTPPPGI | 0.729 ± 0.061
79 | PPAALPRSTPPP | 0.704 ± 0.063
80 | PPAFLSPPLDPL | 0.6054 ± 0.0032
81 | PPAPGPPHPPAL | 0.651 ± 0.013
82 | PPAPPHPPPFPP | 0.589 ± 0.052
83 | PPAPPLSSPPPS | 0.662 ± 0.053
84 | PPAPPPPLPPPP | 0.64 ± 0.017
85 | PPAPPPPPLPSY | 0.714 ± 0.052
86 | PPAPRPSTRHTP | 0.74 ± 0.013
87 | PPAPSPLPPPPF | 0.756 ± 0.03
88 | PPAPSPRPPPPP | 0.708 ± 0.067
89 | PPAPTAPPLSSH | 0.681 ± 0.03
90 | PPARRPVPPLSC | 0.7187 ± 0.0058
91 | PPASPPAPPTFG | 0.645 ± 0.021
92 | PPATPTNPPVSP | 0.687 ± 0.027

Row | Sequence | protein stability index
93 | PPATTPICSTPS | 0.681 ± 0.017
94 | PPAVPSTPLSPP | 0.685 ± 0.032
95 | PPCTVHPLPRLP | 0.727 ± 0.02
96 | PPDLSWPPAPLP | 0.824 ± 0.021
97 | PPDPRLPRHDRP | 0.755 ± 0.018
98 | PPEPRPLPDAPP | 0.5977 ± 0.0052
99 | PPFDSAHPTPAP | 0.739 ± 0.019
100 | PPFLLPCFPCFS | 0.494 ± 0.07
101 | PPFLPPSPPAPP | 0.691 ± 0.031
102 | PPFPPHPPPSSA | 0.6873 ± 0.0052
103 | PPFPPPPPPSPS | 0.751 ± 0.07
104 | PPFPPPSPPHAL | 0.751 ± 0.1
105 | PPFPPRPLPPIP | 0.693 ± 0.017
106 | PPFSLVTGLPCP | 0.71 ± 0.048
107 | PPFVPFLLIFPP | 0.611 ± 0.042
108 | PPGGSRTEGRRT | 0.688 ± 0.049
109 | PPGPPPPLPISP | 0.7244 ± 0.0044
110 | PPGPRPTPPPPI | 0.641 ± 0.045
111 | PPGPTSSPTKTH | 0.729 ± 0.056
112 | PPGSPGPRTPPP | 0.708 ± 0.024
113 | PPHAAPPHICWQ | 0.727 ± 0.049
114 | PPHCSSPTPARH | 0.694 ± 0.028
115 | PPHHPPPASRSQ | 0.653 ± 0.068

Row | Sequence | protein stability index
116 | PPHLPPPPPVPA | 0.5751 ± 0.0052
117 | PPHPKPPPAPPP | 0.527 ± 0.041
118 | PPHPLPPPSPPF | 0.682 ± 0.034
119 | PPHPPRPSVSSS | 0.687 ± 0.0097
120 | PPHPRTPPATPP | 0.601 ± 0.12
121 | PPHPSPPHPSSA | 0.752 ± 0.01
122 | PPHSIPSPSHPR | 0.714 ± 0.052
123 | PPHSPETVPARP | 0.688 ± 0.046
124 | PPHTALLPPAPA | 0.583 ± 0.019
125 | PPHTRTACHRAP | 0.7251 ± 0.0034
126 | PPLAAFLPFLAL | 0.694 ± 0.0011
127 | PPLAPPHPCPPP | 0.698 ± 0.018
128 | PPLASFPPPPPL | 0.667 ± 0.064
129 | PPLASPDPPLPL | 0.66 ± 0.083
130 | PPLGPARNYPSL | 0.673 ± 0.018
131 | PPLLHPLPPPLP | 0.659 ± 0.014
132 | PPLLPPPLTPPD | 0.628 ± 0.051
133 | PPLLPPTPPLSA | 0.625 ± 0.018
134 | PPLLPRPPPLSP | 0.6677 ± 0.0037
135 | PPLPCATLPSHS | 0.706 ± 0.013
136 | PPLPFSSSRFPS | 0.666 ± 0.02
137 | PPLPLPTLPCRP | 0.644 ± 0.035
138 | PPLPLTAPHLCH | 0.705 ± 0.03

Row | Sequence | protein stability index
139 | PPLPPPPHPPFP | 0.683 ± 0.07
140 | PPLPPPPPPVPA | 0.681 ± 0.036
141 | PPLPPRSPSAPL | 0.695 ± 0.034
142 | PPLPPSSMPPSH | 0.685 ± 0.035
143 | PPLPPVPSPPPP | 0.654 ± 0.025
144 | PPLPSLLGLLFP | 0.6773 ± 0.0044
145 | PPLPSSPPSSPL | 0.68 ± 0.013
146 | PPLRPPPPLPVP | 0.663 ± 0.054
147 | PPLSCFPLSTRL | 0.683 ± 0.002
148 | PPLSFDTSRVAP | 0.677 ± 0.049
149 | PPLSHPRPILAP | 0.5683 ± 0.0025
150 | PPLSPLAPPSHP | 0.727 ± 0.069
151 | PPLSPRLLWSPV | 0.711 ± 0.0044
152 | PPLVPPPLRASP | 0.684 ± 0.037
153 | PPLYFFSPMAFF | 0.783 ± 0.032
154 | PPMSYYLFPCSR | 0.699 ± 0.061
155 | PPPAFRLPLPPP | 0.727 ± 0.072
156 | PPPALTHLLPLP | 0.678 ± 0.058
157 | PPPAPLSPLSPR | 0.6777 ± 0.0016
158 | PPPAPPSPPPPP | 0.65 ± 0.054
159 | PPPAPPVRPDRS | 0.686 ± 0.048
160 | PPPASPLPPASP | 0.667 ± 0.031
